Results as given in the supplement of paper PMC10724198.
± gives the standard deviation of the averaged measurements.

System: Saccharomyces cerevisiae
Experiment: protein stability index of tFT-peptide fusion (C-terminal peptide) (PSI (0-1 scale)); higher = more stable (slower turnover)
Conditions: temperature: 30 C
Method: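 MPS profiling in S. cerevisiae of the yeast C-terminome library: the last 12 aa of each annotated ORF are fused to the C-terminus of a sfGFP-mCherry timer, after a GGGS linker. Cells are FACS-sorted into 8 mCherry/sfGFP bins and deep-sequenced. PSI runs from 0 (unstable) to 1 (stable); wild type and das1Δ backgrounds, two technical replicates each.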

[1] = genetic background: das1 deletion

| Sequence | protein stability index [1] | protein stability index (genetic background: wild type) |
| --- | --- | --- |
| ITRTRLDSFVKT [YBR072C-A C-terminal 12 aa] | 0.696 ± 0.038 | 0.6292 ± 0.0014 |
| ITTKRSLCSSKD [PEX25 C-terminal 12 aa] | 0.673 ± 0.015 | 0.695 ± 0.02 |
| IVTEWVKKPCLC [MUP3 C-terminal 12 aa] | 0.546 ± 0.013 | 0.489 ± 0.01 |
| IYQPSRNRLVRY [YBR076C-A C-terminal 12 aa] | 0.707 ± 0.025 | 0.7018 ± 0.0025 |
| KAFVEKLNSKKD [YBT1 C-terminal 12 aa] | 0.707 ± 0.026 | 0.683 ± 0.011 |
| KAIEYFEEYQCW [FRE2 C-terminal 12 aa] | 0.722 ± 0.048 | 0.704 ± 0.052 |
| KAQRSIWGKKSQ [ERV46 C-terminal 12 aa] | 0.6703 ± 0.0035 | 0.682 ± 0.018 |
| KDDTPEDNLEDK [VBA5 C-terminal 12 aa] | 0.6969 ± 0.0021 | 0.71 ± 0.0088 |
| KDNSVGKILNST [BOP3 C-terminal 12 aa] | 0.667 ± 0.018 | 0.71 ± 0.026 |
| KDSELNIKSSKL [STR3 C-terminal 12 aa] | 0.78159 ± 0.00043 | 0.79 ± 0.053 |
| KEDPDLRQSYQG [MGS1 C-terminal 12 aa] | 0.693 ± 0.016 | 0.649 ± 0.0099 |
| KEESGTTSLPTI [GGA1 C-terminal 12 aa] | 0.723 ± 0.02 | 0.704 ± 0.011 |
| KESPANDQASNE [MLP2 C-terminal 12 aa] | 0.688 ± 0.0091 | 0.677 ± 0.032 |
| KETFIQVWEKQE [SAD1 C-terminal 12 aa] | 0.663 ± 0.0072 | 0.651 ± 0.019 |
| KFFNYDGSEGVF [OSI1 C-terminal 12 aa] | 0.7095 ± 0.0039 | 0.715 ± 0.022 |
| KGAFQKVAATSR [RPL24A C-terminal 12 aa] | 0.7102 ± 0.0065 | 0.685 ± 0.0079 |
| KGISIVESTFIS [YDR222W C-terminal 12 aa] | 0.704 ± 0.027 | 0.673 ± 0.022 |
| KGKSFILDSSKL [MDH3 C-terminal 12 aa] | 0.77184 ± 0.00047 | 0.733 ± 0.039 |
| KGLVIVKDAIIL [PFF1 C-terminal 12 aa] | 0.678 ± 0.027 | 0.697 ± 0.01 |
| KGNSMVVHGAQS [SHE3 C-terminal 12 aa] | 0.687 ± 0.026 | 0.6853 ± 0.0059 |
| KIKKIVLKRSFD [NMD2 C-terminal 12 aa] | 0.7019 ± 0.0021 | 0.654 ± 0.022 |

| Sequence | protein stability index [1] | protein stability index (genetic background: wild type) |
| --- | --- | --- |
| KISKSELEGVPS [MTC6 C-terminal 12 aa] | 0.722 ± 0.019 | 0.714 ± 0.045 |
| KITEKWTHKDFK [NOP53 C-terminal 12 aa] | 0.688 ± 0.027 | 0.719 ± 0.058 |
| KITVSNLTNQQI [YCL001W-B C-terminal 12 aa] | 0.6746 ± 0.0032 | 0.684 ± 0.04 |
| KIVIPDKFIQHI [HRD1 C-terminal 12 aa] | 0.673 ± 0.025 | 0.706 ± 0.028 |
| KKAPYFLPAPHT [FMO1 C-terminal 12 aa] | 0.7 ± 0.012 | 0.715 ± 0.0093 |
| KKEKISKYVSKS [OPI11 C-terminal 12 aa] | 0.725 ± 0.0098 | 0.683 ± 0.035 |
| KKEPGANCCIIL [RHO2 C-terminal 12 aa] | 0.743 ± 0.02 | 0.72 ± 0.021 |
| KKIVIIYVVRFH [BSC4 C-terminal 12 aa] | 0.304 ± 0.015 | 0.339 ± 0.01 |
| KKKAINEKAEQN [SEC62 C-terminal 12 aa] | 0.679 ± 0.018 | 0.635 ± 0.02 |
| KKKKSLFLFGKI [YOR019W C-terminal 12 aa] | 0.702 ± 0.039 | 0.6688 ± 0.0015 |
| KKKYKFHQGLSI [SOL2 C-terminal 12 aa] | 0.699 ± 0.028 | 0.695 ± 0.02 |
| KKLSNDGETQAN [DMO2 C-terminal 12 aa] | 0.681 ± 0.013 | 0.655 ± 0.011 |
| KKRISEKQHFIE [AMF1 C-terminal 12 aa] | 0.689 ± 0.038 | 0.633 ± 0.016 |
| KKRNWKRREASS [NRG2 C-terminal 12 aa] | 0.698 ± 0.016 | 0.626 ± 0.044 |
| KKRRIHPTPVDL [CAC2 C-terminal 12 aa] | 0.6974 ± 0.0037 | 0.724 ± 0.027 |
| KKVLLQAKQYSK [UBC9 C-terminal 12 aa] | 0.678 ± 0.017 | 0.682 ± 0.031 |
| KLEKKQSERSTH [STE7 C-terminal 12 aa] | 0.7002 ± 0.0013 | 0.769 ± 0.067 |
| KLFESGQDSFDN [MRC1 C-terminal 12 aa] | 0.7192 ± 0.0032 | 0.727 ± 0.022 |
| KLGEAEVQGLIM [YDR340W C-terminal 12 aa] | 0.721 ± 0.0023 | 0.688 ± 0.0056 |
| KLGSYLRDYLRK [GLO3 C-terminal 12 aa] | 0.707 ± 0.0072 | 0.689 ± 0.0095 |
| KMFAKYRENSRI [DYN3 C-terminal 12 aa] | 0.692 ± 0.017 | 0.667 ± 0.0047 |

| Sequence | protein stability index [1] | protein stability index (genetic background: wild type) |
| --- | --- | --- |
| KMLWQGITDYYI [YOL163W C-terminal 12 aa] | 0.7357 ± 0.0031 | 0.717 ± 0.021 |
| KMQGKYIKKKAM [YNR001W-A C-terminal 12 aa] | 0.7139 ± 0.0039 | 0.385 ± 0.024 |
| KNDKIHLFMYCT [YBR103C-A C-terminal 12 aa] | 0.54 ± 0.022 | 0.536 ± 0.0038 |
| KNGYGNSNASWW [DBP1 C-terminal 12 aa] | 0.717 ± 0.031 | 0.691 ± 0.027 |
| KNNEVLLHKIKI [FAR8 C-terminal 12 aa] | 0.715 ± 0.015 | 0.669 ± 0.056 |
| KNVMRRGQFMKR [GRC3 C-terminal 12 aa] | 0.681 ± 0.013 | 0.753 ± 0.048 |
| KPSAKPVDLSKL [DAL7 C-terminal 12 aa] | 0.759 ± 0.011 | 0.846 ± 0.069 |
| KPTASSSRKMFR [DUO1 C-terminal 12 aa] | 0.7169 ± 0.0025 | 0.722 ± 0.051 |
| KQKAFIQPKLVF [UTP4 C-terminal 12 aa] | 0.691 ± 0.018 | 0.692 ± 0.017 |
| KQKALRGEFGAF [RNA15 C-terminal 12 aa] | 0.709 ± 0.011 | 0.688 ± 0.01 |
| KQNSSITQKNSS [EPL1 C-terminal 12 aa] | 0.71115 ± 0.00071 | 0.697 ± 0.031 |
| KQVNEDADSDLL [KEL1 C-terminal 12 aa] | 0.6784 ± 0.0013 | 0.682 ± 0.013 |
| KRMALFVQEKLA [YFL031C-A C-terminal 12 aa] | 0.717 ± 0.0081 | 0.18 ± 0.0051 |
| KRPPLPNMSFSW [YLL019W-A C-terminal 12 aa] | 0.776 ± 0.025 | 0.728 ± 0.028 |
| KRTKTKITSNNG [YBR190W C-terminal 12 aa] | 0.711 ± 0.012 | 0.69 ± 0.018 |
| KSEVERVYKENS [FAA3 C-terminal 12 aa] | 0.718 ± 0.0093 | 0.6803 ± 0.0059 |
| KSLAECQELLKN [TPD3 C-terminal 12 aa] | 0.687 ± 0.0072 | 0.663 ± 0.061 |
| KTITIGNLPNSI [UGA2 C-terminal 12 aa] | 0.7224 ± 0.0026 | 0.715 ± 0.026 |
| KTPNTKRRKTHK [HAS1 C-terminal 12 aa] | 0.745 ± 0.024 | 0.75 ± 0.036 |
| KTTPRNVELFGM [DXO1 C-terminal 12 aa] | 0.678 ± 0.021 | 0.693 ± 0.018 |
| KVCVCMTINSYN [YDR154C C-terminal 12 aa] | 0.585 ± 0.027 | 0.583 ± 0.018 |

| Sequence | protein stability index [1] | protein stability index (genetic background: wild type) |
| --- | --- | --- |
| KVTKAAQKAAKK [YPR080W; YBR118W C-terminal 12 aa] | 0.678 ± 0.0078 | 0.696 ± 0.012 |
| KWCASYSAGNRR [YLR280C C-terminal 12 aa] | 0.709 ± 0.017 | 0.6752 ± 0.0061 |
| KYESATASALVN [RPS13 C-terminal 12 aa] | 0.697 ± 0.019 | 0.702 ± 0.015 |
| KYFHEDVSEDAY [MET5 C-terminal 12 aa] | 0.707 ± 0.028 | 0.699 ± 0.013 |
| LADEEDAIHDEL [PDI1 C-terminal 12 aa] | 0.68604 ± 0.00055 | 0.678 ± 0.023 |
| LAEVIGVLLKDM [AIM10 C-terminal 12 aa] | 0.69483 ± 0.00037 | 0.646 ± 0.038 |
| LDAILLDIICND [MDM1 C-terminal 12 aa] | 0.697 ± 0.0082 | 0.735 ± 0.045 |
| LEEVEVNDFIQE [SWM2 C-terminal 12 aa] | 0.7099 ± 0.0036 | 0.682 ± 0.02 |
| LEKEKLFNNGNH [PRI2 C-terminal 12 aa] | 0.722 ± 0.053 | 0.722 ± 0.055 |
| LEKLCQKQSSTK [CMC1 C-terminal 12 aa] | 0.724 ± 0.022 | 0.712 ± 0.066 |
| LELCKLASNNLE [RRI2 C-terminal 12 aa] | 0.6896 ± 0.0022 | 0.703 ± 0.04 |
| LELQSRIESYLF [CNN1 C-terminal 12 aa] | 0.703 ± 0.0072 | 0.715 ± 0.047 |
| LERIVGLLLMDM [MHF2 C-terminal 12 aa] | 0.6675 ± 0.0051 | 0.651 ± 0.011 |
| LFFGGEKVHSLK [NGL3 C-terminal 12 aa] | 0.7279 ± 0.0017 | 0.715 ± 0.026 |
| LFYNIRCLGKQF [YAR030C C-terminal 12 aa] | 0.707 ± 0.011 | 0.3967 ± 0.0018 |
| LFYQTIGEFASL [ATF2 C-terminal 12 aa] | 0.706 ± 0.01 | 0.721 ± 0.037 |
| LGKGGKGKRKMK [LSO2 C-terminal 12 aa] | 0.705 ± 0.027 | 0.64 ± 0.018 |
| LGNNAVGLAKAI [PEP4 C-terminal 12 aa] | 0.7 ± 0.0012 | 0.678 ± 0.055 |
| LGQAVVKAINFA [YBR277C C-terminal 12 aa] | 0.6797 ± 0.0059 | 0.702 ± 0.041 |
